Measurements taken from patent US20110269227A1 (SHARP, published 2011).
Ends that are not written are not given here. * marks the point of attachment. Biotin = O=C1N[C@H]2[C@H](CS[C@H]2CCCCC(=O)*)N1; PEG (amino-terminated) = not defined here; cellulose membrane = not defined here

T1: human adiponectin (R&D Systems) (human, UniProt Q15848 19-244)
T1 construct: Bought protein; also called ACRP30; GBP28
T1 sequence (looked up): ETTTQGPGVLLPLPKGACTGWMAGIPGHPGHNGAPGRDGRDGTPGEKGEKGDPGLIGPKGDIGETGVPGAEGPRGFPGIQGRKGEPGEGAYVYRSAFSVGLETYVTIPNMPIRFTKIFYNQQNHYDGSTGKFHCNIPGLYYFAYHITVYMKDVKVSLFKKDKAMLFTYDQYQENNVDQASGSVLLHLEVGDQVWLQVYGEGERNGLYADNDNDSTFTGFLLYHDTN


Columns and labels:
[1] = target: T1, human adiponectin (R&D Systems); experiment: adiponectin coated on microplate, 1 mM biotin-tagged peptide, HRP-streptavidin, TMB absorbance at 450 nm
Experimental: 5 μg/mL adiponectin (R&D Systems) prepared with PBS was dispensed to wells of a 96-well microplate in an amount of 100 μL per well. Then, the peptides were incubated for 1 hour at 37° C. Adiponectin was thus immobilized in the wells. In order to inhibit nonspecific binding, a blocking solution (Protein-Free Blocking Buffer, PIERCE) was then added to the wells in an amount of 300 μL per well. Then, the peptides were incubated for 2 hours at room temperature. Then, the wells were washed three times with PBST (PBS containing 0.1% (v/v) Tween 20). Then, 1 mM biotin-tagged peptide was added to the wells in an amount of 100 μL per well. Then, the peptides were incubated for 1 hour at room temperature. Then, the wells were washed with PBST again.
Then, HRP-tagged streptavidin (R&D Systems) diluted with 200 parts of the blocking solution (Protein-Free Blocking Buffer, PIERCE) was added to the well in an amount of 100 μL per well. Then, the streptavidin was incubated for 1 hour at room temperature. Then, the wells were washed with PBST. Then, TMB (tetramethylbenzidine) was added to the wells in an amount of 100 μL per well so that they react with each other for 20 minutes. Then, the reaction was stopped by adding 1 M of HCL to the wells in an amount of 100 μL per well. Then, an absorbance at 450 nm was measured by use of a microplate reader (Bio-Rad).

[2] = target: T1, human adiponectin (R&D Systems); experiment: peptide spot on cellulose membrane, sandwich enzyme immunoassay with HRP-tagged anti-adiponectin antibody, fluorescence
Experimental: First, a cellulose membrane was soaked in ethanol. Then, the cellulose membrane was continuously washed with phosphate buffered saline (PBS) (pH 7.4) so that ethanol contained in the cellulose membrane was replaced with PBS. In order that nonspecific binding is inhibited, the cellulose membrane was incubated overnight in a blocking solution (PBS containing 1% milk powder).
Then, the cellulose membrane was incubated for 1 hour in a blocking solution (PBS containing 1% milk powder) which contains 0.25 μg/mL human adiponectin (R&D Systems). Then, the cellulose membrane was washed with PBST (PBS containing 0.1% (v/v) Tween 20). Then, the cellulose membrane was incubated for 1 hour in a blocking solution containing […] anti-human adiponectin antibody (R&D Systems) which is tagged with HRP, and then washed with PBST five times.
After that, 100 μM fluorescent substrate (Amplex Red (Invitrogen)) containing 1 mM hydrogen peroxide was added to the cellulose membrane, and then they react with each other for 10 minutes. A fluorescent intensity in a synthesis spot was measured in such a manner that an […] wavelength of 595 nm of fluorescence from the fluorescent substrate was measured by a fluorescence imager (GE Healthcare) by exciting, with light of 540 nm, the fluorescent substrate in the synthesis spot. A bond strength of the peptide was worked out from the fluorescent intensity in the synthesis spot.

| Binder | binding result [1] | binding result [2] |
| --- | --- | --- |
| ITPIHWVKK(Biotin) | binds | – |
| RFATPKHR-{PEG (amino-terminated)-cellulose membrane} (reading uncertain, Spot-synthesised on a cellulose membrane) [peptide consisting of the amino-acid sequence represented by SEQ ID NO: 9] | – | binds |
| RQTRAGVF-{PEG (amino-terminated)-cellulose membrane} (reading uncertain, Spot-synthesised on a cellulose membrane) [peptide consisting of the amino-acid sequence represented by SEQ ID NO: 10] | – | binds |
| GFVKATTV-{PEG (amino-terminated)-cellulose membrane} (reading uncertain, Spot-synthesised on a cellulose membrane) [peptide consisting of the amino-acid sequence represented by SEQ ID NO: 13] | – | binds |
| ILLPLRIN-{PEG (amino-terminated)-cellulose membrane} (reading uncertain, Spot-synthesised on a cellulose membrane; also called ILLPLRIN) [peptide consisting of the amino-acid sequence represented by SEQ ID NO: 15] | – | binds |
| ILTMLRPNMYF-{PEG (amino-terminated)-cellulose membrane} (reading uncertain, Spot-synthesised on a cellulose membrane) [peptide consisting of the amino-acid sequence represented by SEQ ID NO: 5] | – | binds |
| LTLPLQAHHAME-{PEG (amino-terminated)-cellulose membrane} (reading uncertain, Spot-synthesised on a cellulose membrane) [peptide consisting of the amino-acid sequence represented by SEQ ID NO: 2] | – | binds |
| MGSFVPW-{PEG (amino-terminated)-cellulose membrane} (reading uncertain, Spot-synthesised on a cellulose membrane; also called MGSFVPW) [peptide consisting of the amino-acid sequence represented by SEQ ID NO: 8] | – | binds |
| FRIHTETG-{PEG (amino-terminated)-cellulose membrane} (reading uncertain, Spot-synthesised on a cellulose membrane) [peptide consisting of the amino-acid sequence represented by SEQ ID NO: 4] | – | binds |
| ILLPLRINK(Biotin) | binds | – |
| MHFTIAEG-{PEG (amino-terminated)-cellulose membrane} (reading uncertain, Spot-synthesised on a cellulose membrane) [peptide consisting of the amino-acid sequence represented by SEQ ID NO: 11] | – | binds |
| FLGLGLSGVVPT-{PEG (amino-terminated)-cellulose membrane} (reading uncertain, Spot-synthesised on a cellulose membrane) [peptide consisting of the amino-acid sequence represented by SEQ ID NO: 12] | – | binds |
| LLHGHRPPMP-{PEG (amino-terminated)-cellulose membrane} (reading uncertain, Spot-synthesised on a cellulose membrane) [peptide consisting of the amino-acid sequence represented by SEQ ID NO: 3] | – | binds |

Continued, values first:

| binding result [1] | binding result [2] | Binder |
| --- | --- | --- |
| – | binds | KFATPKHR [peptide having the amino-acid sequence represented by SEQ ID NO: 19] |
| – | binds | APLQEKVVFG-{PEG (amino-terminated)-cellulose membrane} (reading uncertain, Spot-synthesised on a cellulose membrane) [peptide consisting of the amino-acid sequence represented by SEQ ID NO: 6] |
| – | binds | ITPIHWVK-{PEG (amino-terminated)-cellulose membrane} (reading uncertain, Spot-synthesised on a cellulose membrane) [peptide consisting of the amino-acid sequence represented by SEQ ID NO: 14] |
| – | binds | VRVLTLPL-{PEG (amino-terminated)-cellulose membrane} (reading uncertain, Spot-synthesised on a cellulose membrane) [peptide consisting of the amino-acid sequence represented by SEQ ID NO: 1] |
| – | binds | IALLIMGS-{PEG (amino-terminated)-cellulose membrane} (reading uncertain, Spot-synthesised on a cellulose membrane) [peptide consisting of the amino-acid sequence represented by SEQ ID NO: 7] |
| – | binds | MGSFVPY-{PEG (amino-terminated)-cellulose membrane} (reading uncertain, also called MGSFVPY) [peptide having the amino-acid sequence represented by SEQ ID NO: 18] |
